Assay results as given in patent publication US6319685A (Unigene Laboratories, Inc., priority 1987, dated 2001).
One block for each molecule: values may come before it. Residues, ends and D or L forms follow the SMILES beside them.

Experiments:
[1] = biological target: T1, alpha-amidating enzyme (Rattus norvegicus, UniProt P14925); test: co-factor requirement of alpha-amidating enzyme for maximal activity; type: biochemical; conditions: in vitro, with peptide substrate, oxygen and L-ascorbic acid
T1 sequence (P14925 36-976): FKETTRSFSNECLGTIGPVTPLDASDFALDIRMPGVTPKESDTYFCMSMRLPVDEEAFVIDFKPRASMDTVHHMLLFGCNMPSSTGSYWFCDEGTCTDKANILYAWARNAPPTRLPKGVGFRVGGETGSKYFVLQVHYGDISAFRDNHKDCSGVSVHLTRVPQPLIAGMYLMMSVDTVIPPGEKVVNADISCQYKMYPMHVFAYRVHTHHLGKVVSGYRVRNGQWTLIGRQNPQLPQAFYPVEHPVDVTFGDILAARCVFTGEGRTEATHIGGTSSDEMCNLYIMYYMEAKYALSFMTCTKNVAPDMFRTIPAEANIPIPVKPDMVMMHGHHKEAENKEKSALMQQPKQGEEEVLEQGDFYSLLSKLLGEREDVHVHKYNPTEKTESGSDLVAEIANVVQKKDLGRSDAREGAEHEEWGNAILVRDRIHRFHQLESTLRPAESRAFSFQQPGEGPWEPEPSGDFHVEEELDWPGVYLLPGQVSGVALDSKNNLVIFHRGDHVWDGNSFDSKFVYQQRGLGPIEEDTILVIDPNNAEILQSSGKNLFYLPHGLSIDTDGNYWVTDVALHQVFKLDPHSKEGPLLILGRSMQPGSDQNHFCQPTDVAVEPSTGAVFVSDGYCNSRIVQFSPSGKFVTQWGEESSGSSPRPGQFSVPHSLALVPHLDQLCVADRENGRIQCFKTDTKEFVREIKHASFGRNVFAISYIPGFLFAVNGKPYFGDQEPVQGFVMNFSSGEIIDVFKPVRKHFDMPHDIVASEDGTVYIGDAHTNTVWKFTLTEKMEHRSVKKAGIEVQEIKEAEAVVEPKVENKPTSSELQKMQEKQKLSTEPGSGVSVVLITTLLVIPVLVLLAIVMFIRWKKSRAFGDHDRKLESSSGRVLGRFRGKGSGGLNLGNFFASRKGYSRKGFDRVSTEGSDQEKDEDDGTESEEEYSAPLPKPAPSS

[2] = biological target: T1, alpha-amidating enzyme; test: comparison of assay systems / kinetic analysis of amidation of dansyl-Tyr-Val-Gly, D-Tyr-Val-Gly and 125I-D-Tyr-Val-Gly; type: biochemical
Procedure: (§1) I. Monodansyl L-Tyr-Val-Gly
(§2) The concentration of enzyme used in all experiments was left constant except where noted.
(§3) The reaction mixture for the conversion of the monodansyl substrate contained:
(§4) 5 μl of 100 ug/mL bovine pancreatic catalase
(§5) 5 μl containing 2 nmoles of substrate
(§6) The samples were prepared in duplicate and incubated at 37° C. for 10, 20 and 30 minutes time periods. The enzymatic reaction was halted by the addition of 10 ul 500 mM EDTA. Substrate and product were separated by RP HPLC using an Hewlett Packard-1090 liquid chromatography system, and quantitation was achieved using a HP-3392 integrator.
(§7) D-Tyr-Val-Gly and D-Tyr-Val-NH2 were iodinated using iodobeads from Pierce Chemical Company. The radiolabeied substrate and product were used to calibrate a sulfyl-propyl cation-exchange column. ^125 I D-Tyr-Val-Gly was added to 650 uM D-Tyr-Val-Gly and used as the substrate. The reaction mixture for the conversion of monodansyl substrate contained:
(§8) Samples were incubated for 10, 20, 30 minutes at 37° C. The reaction was stopped by addition of 500 mM EDTA. […] The conversion of radiolabeled substrate to product was linear with respect to time.
The reaction conditions used for the amidation of D-Tyr-Val-Gly are identical to those described for the dansyl and iodinated substrates. Substrate concentration in the reaction mixture was 650 uM. Separation of substrate and product is achieved by gradient elution on RP-HPLC using a HP-1090 liquid chromatography system. The column effluents were monitored at 280 nm. The level of sensitivity for this assay is much lower than that for either dansyl or iodinated substrates.
Furthermore, a somewhat more rigorous kinetic analysis has also been employed to compare the dansyl-Tyr-Val-Gly (Applicants') assay to the D-Tyr-Val-Gly (prior art) assay.

[3] = substrate: CC(C)[C@H](NC(=O)[C@H](N)Cc1ccc(O)cc1)C(=O)NCC(=O)O; test: as above; type: biochemical, rat; conditions: 37.0 °C
Procedure: as §1, §2, §3, §4, §5, §6, §7, §8
The reaction conditions used for the amidation of D-Tyr-Val-Gly are identical to those described for the dansyl and iodinated substrates. Substrate concentration in the reaction mixture was 650 uM. […] The column effluents were monitored at 280 nm. […]

[4] = pH optimum of alpha-amidating enzyme; type: biochemical; conditions: CA-77 cell tissue culture media enzyme
Procedure: 2. The optimum pH for the activity of the enzyme was determined to be pH 5.0-5.5 using N dansyl Tyr-Val-Gly as the substrate (FIG. XVI). However, due to the enhanced stability of the enzyme at neutral pH, it may be beneficial to carry out the amidation reaction at such pH.

[5] = specific alpha-amidating activity, conversion of Dansyl-D-Tyr-Val-Gly to Dansyl-D-Tyr-Val-CONH2; type: biochemical
Procedure: These and other objects will become apparent from a thorough reading of the present disclosure. […] All specific activity units set forth herein are based upon the conversion of Dansyl-D-Try-Val-Gly-COOH to Dansyl-D-Tyr-Val-CONH2. One mU is defined as the amount of activity needed to convert one nanomole (nmole) of Dansyl-D-Tyr-Val-Gly-COOH to one nmole of Dansyl-D-Tyr-Val-CONH2 per minute at 37° C. and pH 7.0 in the presence of ascorbate ions at a concentration of 3 mM (based on total reaction mixture including enzyme, substrate, co-factors, etc.), molecular oxygen in a molar excess over substrate and a concentration of cupric ions effective to maximize activity (usually about 2 μM depending on the state of purity of the enzyme).
Each purification step can be monitored for both protein content and the level of alpha-amidation activity. This information is used to calculate the specific activity of the enzyme which serves as an indicator of the relative purity of the enzyme.
Sephacryl S-300 (Pharmacia) was equilibrated in 50 mM Tris HCl pH 7.0 and poured into a K 50/100 column (Pharmacia) according to the manufacturer's instructions. The bed volume of the column was approximately 1.3 liters. The Sample was loaded onto the column in a volume representing approximately 3 percent of the bed volume of the column. Proteins were eluted from the column in 50 mM Tris HCl pH 7.0 at a flow rate of approximately 2 ml per minute.
as §3
The samples were prepared in duplicate and incubated at 37° C. for 10, 20 and 30 minutes time periods. The enzymatic reaction was halted by the addition of 10 ul 500 mM EDTA.

- effect of addition on enzymatic activity [1]: substantially increased
Molecule: O=S(=O)([O-])[O-].[Cu+2] [copper sulfate]

- fractional conversion relative to dansyl-Tyr-Val-Gly ([2]; each time point (10, 20, 30 minutes), 37° C.): approximately 1.55 times
Molecule: ^125 I-D-Tyr-Val-Gly [125I-D-Tyr-Val-Gly]

Molecule: catalase
- effect of addition on enzymatic activity [1]: substantially increased

Molecule: CC(C)[C@H](NC(=O)[C@H](N)Cc1ccc(O)cc1)C(=O)NCC(=O)O [D-Tyr-Val-Gly] (HELM PEPTIDE1{[dY].V.G}$$$$V2.0)
- maximal velocity relative to dansyl-Tyr-Val-Gly ([2]; comparison of Vmax): approximately 1.48 times

B1: alpha-amidating enzyme (Rattus norvegicus) (protein)
chain: FKETTRSFSNECLGTIGPVTPLDASDFALDIRMPGVTPKESDTYFCMSMRLPVDEEAFVIDFKPRASMDTVHHMLLFGCNMPSSTGSYWFCDEGTCTDKANILYAWARNAPPTRLPKGVGFRVGGETGSKYFVLQVHYGDISAFRDNHKDCSGVSVHLTRVPQPLIAGMYLMMSVDTVIPPGEKVVNADISCQYKMYPMHVFAYRVHTHHLGKVVSGYRVRNGQWTLIGRQNPQLPQAFYPVEHPVDVTFGDILAARCVFTGEGRTEATHIGGTSSDEMCNLYIMYYMEAKYALSFMTCTKNVAPDMFRTIPAEANIPIPVKPDMVMMHGHHKEAENKEKSALMQQPKQGEEEVLEQGDFYSLLSKLLGEREDVHVHKYNPTEKTESGSDLVAEIANVVQKKDLGRSDAREGAEHEEWGNAILVRDRIHRFHQLESTLRPAESRAFSFQQPGEGPWEPEPSGDFHVEEELDWPGVYLLPGQVSGVALDSKNNLVIFHRGDHVWDGNSFDSKFVYQQRGLGPIEEDTILVIDPNNAEILQSSGKNLFYLPHGLSIDTDGNYWVTDVALHQVFKLDPHSKEGPLLILGRSMQPGSDQNHFCQPTDVAVEPSTGAVFVSDGYCNSRIVQFSPSGKFVTQWGEESSGSSPRPGQFSVPHSLALVPHLDQLCVADRENGRIQCFKTDTKEFVREIKHASFGRNVFAISYIPGFLFAVNGKPYFGDQEPVQGFVMNFSSGEIIDVFKPVRKHFDMPHDIVASEDGTVYIGDAHTNTVWKFTLTEKMEHRSVKKAGIEVQEIKEAEAVVEPKVENKPTSSELQKMQEKQKLSTEPGSGVSVVLITTLLVIPVLVLLAIVMFIRWKKSRAFGDHDRKLESSSGRVLGRFRGKGSGGLNLGNFFASRKGYSRKGFDRVSTEGSDQEKDEDDGTESEEEYSAPLPKPAPSS
- Km [3]: 37 µM
- Vmax [3]: 31 pmol product/min/μl

- pH optimum [4]: 5.0-5.5
B2: Peak IV enzyme (CA-77): higher molecular weight form from CA-77 medium, corresponds to peak III derived from MTC tumors (protein, UniProt P14925 36-976, looked up)
Peptidylglycine …: FKETTRSFSNECLGTIGPVTPLDASDFALDIRMPGVTPKESDTYFCMSMRLPVDEEAFVIDFKPRASMDTVHHMLLFGCNMPSSTGSYWFCDEGTCTDKANILYAWARNAPPTRLPKGVGFRVGGETGSKYFVLQVHYGDISAFRDNHKDCSGVSVHLTRVPQPLIAGMYLMMSVDTVIPPGEKVVNADISCQYKMYPMHVFAYRVHTHHLGKVVSGYRVRNGQWTLIGRQNPQLPQAFYPVEHPVDVTFGDILAARCVFTGEGRTEATHIGGTSSDEMCNLYIMYYMEAKYALSFMTCTKNVAPDMFRTIPAEANIPIPVKPDMVMMHGHHKEAENKEKSALMQQPKQGEEEVLEQGDFYSLLSKLLGEREDVHVHKYNPTEKTESGSDLVAEIANVVQKKDLGRSDAREGAEHEEWGNAILVRDRIHRFHQLESTLRPAESRAFSFQQPGEGPWEPEPSGDFHVEEELDWPGVYLLPGQVSGVALDSKNNLVIFHRGDHVWDGNSFDSKFVYQQRGLGPIEEDTILVIDPNNAEILQSSGKNLFYLPHGLSIDTDGNYWVTDVALHQVFKLDPHSKEGPLLILGRSMQPGSDQNHFCQPTDVAVEPSTGAVFVSDGYCNSRIVQFSPSGKFVTQWGEESSGSSPRPGQFSVPHSLALVPHLDQLCVADRENGRIQCFKTDTKEFVREIKHASFGRNVFAISYIPGFLFAVNGKPYFGDQEPVQGFVMNFSSGEIIDVFKPVRKHFDMPHDIVASEDGTVYIGDAHTNTVWKFTLTEKMEHRSVKKAGIEVQEIKEAEAVVEPKVENKPTSSELQKMQEKQKLSTEPGSGVSVVLITTLLVIPVLVLLAIVMFIRWKKSRAFGDHDRKLESSSGRVLGRFRGKGSGGLNLGNFFASRKGYSRKGFDRVSTEGSDQEKDEDDGTESEEEYSAPLPKPAPSS
modifications: higher molecular weight form
- specific activity ([5]; CA-77 media, purified enzyme, pH 7.0): approximately 1500 mU/mg protein

B3: peak eluting at 190 mM NaCl: enzyme activity peak from Mono Q HR 5/5 at pH 8.0 eluting at 190 mM NaCl (protein, UniProt P14925 36-976, looked up)
Peptidylglycine …: FKETTRSFSNECLGTIGPVTPLDASDFALDIRMPGVTPKESDTYFCMSMRLPVDEEAFVIDFKPRASMDTVHHMLLFGCNMPSSTGSYWFCDEGTCTDKANILYAWARNAPPTRLPKGVGFRVGGETGSKYFVLQVHYGDISAFRDNHKDCSGVSVHLTRVPQPLIAGMYLMMSVDTVIPPGEKVVNADISCQYKMYPMHVFAYRVHTHHLGKVVSGYRVRNGQWTLIGRQNPQLPQAFYPVEHPVDVTFGDILAARCVFTGEGRTEATHIGGTSSDEMCNLYIMYYMEAKYALSFMTCTKNVAPDMFRTIPAEANIPIPVKPDMVMMHGHHKEAENKEKSALMQQPKQGEEEVLEQGDFYSLLSKLLGEREDVHVHKYNPTEKTESGSDLVAEIANVVQKKDLGRSDAREGAEHEEWGNAILVRDRIHRFHQLESTLRPAESRAFSFQQPGEGPWEPEPSGDFHVEEELDWPGVYLLPGQVSGVALDSKNNLVIFHRGDHVWDGNSFDSKFVYQQRGLGPIEEDTILVIDPNNAEILQSSGKNLFYLPHGLSIDTDGNYWVTDVALHQVFKLDPHSKEGPLLILGRSMQPGSDQNHFCQPTDVAVEPSTGAVFVSDGYCNSRIVQFSPSGKFVTQWGEESSGSSPRPGQFSVPHSLALVPHLDQLCVADRENGRIQCFKTDTKEFVREIKHASFGRNVFAISYIPGFLFAVNGKPYFGDQEPVQGFVMNFSSGEIIDVFKPVRKHFDMPHDIVASEDGTVYIGDAHTNTVWKFTLTEKMEHRSVKKAGIEVQEIKEAEAVVEPKVENKPTSSELQKMQEKQKLSTEPGSGVSVVLITTLLVIPVLVLLAIVMFIRWKKSRAFGDHDRKLESSSGRVLGRFRGKGSGGLNLGNFFASRKGYSRKGFDRVSTEGSDQEKDEDDGTESEEEYSAPLPKPAPSS
modifications: Mono Q fraction
- specific alpha-amidating activity ([5]; after Mono Q chromatography at pH 8.0, rat MTC tumor): at least 80 mU/mg protein
